Measured values as given in IntAct's records for PubMed 29892012.

B1: Glucosamine-6-phosphate deaminase 2 (Homo sapiens), Q8TDQ7 (parent)
chain: MRLVILDNYDLASEWAAKYICNRIIQFKPGQDRYFTLGLPTGSTPLGCYKKLIEYHKNGHLSFKYVKTFNMDEYVGLPRNHPESYHSYMWNNFFKHIDIDPNNAHILDGNAADLQAECDAFENKIKEAGGIDLFVGGIGPDGHIAFNEPGSSLVSRTRLKTLAMDTILANAKYFDGDLSKVPTMALTVGVGTVMDAREVMILITGAHKAFALYKAIEEGVNHMWTVSAFQQHPRTIFVCDEDATLELRVKTVKYFKGLMHVHNKLVDPLFSMKDGN
partner: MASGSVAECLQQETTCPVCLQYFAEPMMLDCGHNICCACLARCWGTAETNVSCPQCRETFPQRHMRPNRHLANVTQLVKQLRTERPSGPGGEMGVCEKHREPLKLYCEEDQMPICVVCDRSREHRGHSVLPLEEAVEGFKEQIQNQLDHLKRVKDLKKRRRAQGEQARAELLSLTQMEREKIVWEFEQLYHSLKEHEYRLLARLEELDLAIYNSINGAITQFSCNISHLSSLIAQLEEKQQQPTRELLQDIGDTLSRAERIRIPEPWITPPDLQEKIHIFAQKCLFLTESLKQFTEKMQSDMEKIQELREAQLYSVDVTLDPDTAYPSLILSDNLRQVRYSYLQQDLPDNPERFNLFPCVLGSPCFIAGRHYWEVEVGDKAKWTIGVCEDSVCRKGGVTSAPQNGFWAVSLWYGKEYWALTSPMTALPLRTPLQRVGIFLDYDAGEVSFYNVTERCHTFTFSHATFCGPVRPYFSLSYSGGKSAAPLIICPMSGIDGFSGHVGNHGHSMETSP
B2: Coiled-coil alpha-helical rod protein 1 (Homo sapiens), Q8TD31 (parent)
chain: MFPPSGSTGLIPPSHFQARPLSTLPRMAPTWLSDIPLVQPPGHQDVSERRLDTQRPQVTMWERDVSSDRQEPGRRGRSWGLEGSQALSQQAEVIVRQLQELRRLEEEVRLLRETSLQQKMRLEAQAMELEALARAEKAGRAEAEGLRAALAGAEVVRKNLEEGSQRELEEVQRLHQEQLSSLTQAHEEALSSLTSKAEGLEKSLSSLETRRAGEAKELAEAQREAELLRKQLSKTQEDLEAQVTLVENLRKYVGEQVPSEVHSQTWELERQKLLETMQHLQEDRDSLHATAELLQVRVQSLTHILALQEEELTRKVQPSDSLEPEFTRKCQSLLNRWREKVFALMVQLKAQELEHSDSVKQLKGQVASLQEKVTSQSQEQAILQRSLQDKAAEVEVERMGAKGLQLELSRAQEARRRWQQQTASAEEQLRLVVNAVSSSQIWLETTMAKVEGAAAQLPSLNNRLSYAVRKVHTIRGLIARKLALAQLRQESCPLPPPVTDVSLELQQLREERNRLDAELQLSARLIQQEVGRAREQGEAERQQLSKVAQQLEQELQQTQESLASLGLQLEVARQGQQESTEEAASLRQELTQQQELYGQALQEKVAEVETRLREQLSDTERRLNEARREHAKAVVSLRQIQRRAAQEKERSQELRRLQEEARKEEGQRLARRLQELERDKNLMLATLQQEGLLSRYKQQRLLTVLPSLLDKKKSVVSSPRPPECSASAPVAAAVPTRESIKGSLSVLLDDLQDLSEAISKEEAVCQGDNLDRCSSSNPQMSS
partner: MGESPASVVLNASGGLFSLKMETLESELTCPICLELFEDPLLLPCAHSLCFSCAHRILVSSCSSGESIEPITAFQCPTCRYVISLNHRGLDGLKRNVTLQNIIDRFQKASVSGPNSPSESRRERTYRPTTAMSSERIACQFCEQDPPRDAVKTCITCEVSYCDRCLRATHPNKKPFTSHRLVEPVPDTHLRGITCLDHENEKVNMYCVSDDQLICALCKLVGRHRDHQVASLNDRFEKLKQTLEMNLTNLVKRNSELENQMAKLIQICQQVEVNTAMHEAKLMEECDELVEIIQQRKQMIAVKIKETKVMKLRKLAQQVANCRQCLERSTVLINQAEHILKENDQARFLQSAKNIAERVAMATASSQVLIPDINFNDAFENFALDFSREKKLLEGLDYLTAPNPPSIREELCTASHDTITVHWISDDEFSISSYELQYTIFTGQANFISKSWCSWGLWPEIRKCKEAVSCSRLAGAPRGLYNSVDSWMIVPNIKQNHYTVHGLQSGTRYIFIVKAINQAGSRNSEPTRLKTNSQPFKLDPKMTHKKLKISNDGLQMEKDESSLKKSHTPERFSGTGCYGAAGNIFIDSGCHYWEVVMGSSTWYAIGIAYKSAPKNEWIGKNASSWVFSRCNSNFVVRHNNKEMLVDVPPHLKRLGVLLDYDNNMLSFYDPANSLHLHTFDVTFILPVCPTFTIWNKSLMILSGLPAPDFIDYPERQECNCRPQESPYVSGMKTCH
B3: Zinc finger and BTB domain-containing protein 49 (Homo sapiens), Q6ZSB9 (parent)
chain: MDPVATHSCHLLQQLHEQRIQGLLCDCMLVVKGVCFKAHKNVLAAFSQYFRSLFQNSSSQKNDVFHLDVKNVSGIGQILDFMYTSHLDLNQDNIQVMLDTAQCLQVQNVLSLCHTFLKSATVVQPPGMPCNSTLSLQSTLTPDATCVISENYPPHLLQECSADAQQNKTLDESHPHASPSVNRHHSAGEISKQAPDTSDGSCTELPFKQPNYYYKLRNFYSKQYHKHAAGPSQERVVEQPFAFSTSTDLTTVESQPCAVSHSECILESPEHLPSNFLAQPVNDSAPHPESDATCQQPVKQMRLKKAIHLKKLNFLKSQKYAEQVSEPKSDDGLTKRLESASKNTLEKASSQSAEEKESEEVVSCENFNCISETERPEDPAALEDQSQTLQSQRQYACELCGKPFKHPSNLELHKRSHTGEKPFECNICGKHFSQAGNLQTHLRRHSGEKPYICEICGKRFAASGDVQRHIIIHSGEKPHLCDICGRGFSNFSNLKEHKKTHTADKVFTCDECGKSFNMQRKLVKHRIRHTGERPYSCSACGKCFGGSGDLRRHVRTHTGEKPYTCEICNKCFTRSAVLRRHKKMHCKAGDESPDVLEELSQAIETSDLEKSQSSDSFSQDTSVTLMPVSVKLPVHPVENSVAEFDSHSGGSYCKLRSMIQPHGVSDQEKLSLDPGKLAKPQMQQTQPQAYAYSDVDTPAGGEPLQADGMAMIRSSLAALDNHGGDPLGSRASSTTYRNSEGQFFSSMTLWGLAMKTLQNENELDQ
B4: Zinc finger protein ZXDC (Homo sapiens), Q2QGD7 (parent)
chain: MDLPALLPAPTARGGQHGGGPGPLRRAPAPLGASPARRRLLLVRGPEDGGPGARPGEASGPSPPPAEDDSDGDSFLVLLEVPHGGAAAEAAGSQEAEPGSRVNLASRPEQGPSGPAAPPGPGVAPAGAVTISSQDLLVRLDRGVLALSAPPGPATAGAAAPRRAPQASGPSTPGYRCPEPQCALAFAKKHQLKVHLLTHGGGQGRRPFKCPLEGCGWAFTTSYKLKRHLQSHDKLRPFGCPVGGCGKKFTTVYNLKAHMKGHEQESLFKCEVCAERFPTHAKLSSHQRSHFEPERPYKCDFPGCEKTFITVSALFSHNRAHFREQELFSCSFPGCSKQYDKACRLKIHLRSHTGERPFICDSDSCGWTFTSMSKLLRHRRKHDDDRRFTCPVEGCGKSFTRAEHLKGHSITHLGTKPFECPVEGCCARFSARSSLYIHSKKHVQDVGAPKSRCPVSTCNRLFTSKHSMKAHMVRQHSRRQDLLPQLEAPSSLTPSSELSSPGQSELTNMDLAALFSDTPANASGSAGGSDEALNSGILTIDVTSVSSSLGGNLPANNSSLGPMEPLVLVAHSDIPPSLDSPLVLGTAATVLQQGSFSVDDVQTVSAGALGCLVALPMKNLSDDPLALTSNSNLAAHITTPTSSSTPRENASVPELLAPIKVEPDSPSRPGAVGQQEGSHGLPQSTLPSPAEQHGAQDTELSAGTGNFYLESGGSARTDYRAIQLAKEKKQRGAGSNAGASQSTQRKIKEGKMSPPHFHASQNSWLCGSLVVPSGGRPGPAPAAGVQCGAQGVQVQLVQDDPSGEGVLPSARGPATFLPFLTVDLPVYVLQEVLPSSGGPAGPEATQFPGSTINLQDLQ

Variants of: B1
Conditions: with tri27_human TRIM27, P14373

| Variant | effect of a mutation on the interaction |
| --- | --- |
| I216V | with no effect |

Variants of: B2
Conditions: with trim1_human MID2, Q9UJV3

| Variant | effect of a mutation on the interaction |
| --- | --- |
| W337R | disrupting interaction strength |

Variants of: B3
Conditions: with gopc_human GOPC

| Variant | effect of a mutation on the interaction |
| --- | --- |
| D88V | with no effect |

Variants of: B4
Conditions: with wdr5_human WDR5, P61964

| Variant | effect of a mutation on the interaction |
| --- | --- |
| T589M | with no effect |
